# Assay results from IntAct's records for PubMed 35512704.
# B1: Speckle-type POZ protein (Homo sapiens), O43791 (parent)
# chain: MSRVPSPPPPAEMSSGPVAESWCYTQIKVVKFSYMWTINNFSFCREEMGEVIKSSTFSSGANDKLKWCLRVNPKGLDEESKDYLSLYLLLVSCPKSEVRAKFKFSILNAKGEETKAMESQRAYRFVQGKDWGFKKFIRRDFLLDEANGLLPDDKLTLFCEVSVVQDSVNISGQNTMNMVKVPECRLADELGGLWENSRFTDCCLCVAGQEFQAHKAILAARSPVFSAMFEHEMEESKKNRVEINDVEPEVFKEMMCFIYTGKAPNLDKMADDLLAAADKYALERLKVMCEDALCSNLSVENAAEILILADLHSADQLKTQAVDFINYHASDVLETSGWKSMVVSHPHLVAEAYRSLASAQCPFLGPPRKRLKQS
# partner: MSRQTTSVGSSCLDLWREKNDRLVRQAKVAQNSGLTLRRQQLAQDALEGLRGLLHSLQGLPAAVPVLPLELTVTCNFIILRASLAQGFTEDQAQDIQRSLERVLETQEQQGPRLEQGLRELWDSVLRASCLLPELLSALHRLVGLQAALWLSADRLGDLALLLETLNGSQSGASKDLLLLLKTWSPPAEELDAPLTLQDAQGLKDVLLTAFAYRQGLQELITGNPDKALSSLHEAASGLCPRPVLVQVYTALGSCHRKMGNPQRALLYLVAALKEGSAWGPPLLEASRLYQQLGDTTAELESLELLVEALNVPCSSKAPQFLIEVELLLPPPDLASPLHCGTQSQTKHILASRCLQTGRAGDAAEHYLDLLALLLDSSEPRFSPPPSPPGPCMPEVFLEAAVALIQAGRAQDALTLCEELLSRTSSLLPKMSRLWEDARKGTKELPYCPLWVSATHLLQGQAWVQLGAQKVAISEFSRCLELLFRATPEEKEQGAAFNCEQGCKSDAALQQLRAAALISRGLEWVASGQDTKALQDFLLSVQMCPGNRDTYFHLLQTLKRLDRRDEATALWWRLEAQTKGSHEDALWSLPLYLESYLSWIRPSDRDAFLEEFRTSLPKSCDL
# B2: Speckle-type POZ protein (Homo sapiens), O43791 (parent)
# chain: B1 chain
# partner: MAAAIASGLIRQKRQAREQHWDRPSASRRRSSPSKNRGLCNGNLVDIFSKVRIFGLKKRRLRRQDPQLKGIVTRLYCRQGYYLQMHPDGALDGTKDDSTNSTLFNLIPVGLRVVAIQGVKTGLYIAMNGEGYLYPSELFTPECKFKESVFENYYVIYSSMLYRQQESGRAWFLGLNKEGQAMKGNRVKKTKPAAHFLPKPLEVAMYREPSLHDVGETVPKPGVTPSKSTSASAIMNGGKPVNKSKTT
# B3: Speckle-type POZ protein (Homo sapiens), O43791 (parent)
# chain: B1 chain
# partner: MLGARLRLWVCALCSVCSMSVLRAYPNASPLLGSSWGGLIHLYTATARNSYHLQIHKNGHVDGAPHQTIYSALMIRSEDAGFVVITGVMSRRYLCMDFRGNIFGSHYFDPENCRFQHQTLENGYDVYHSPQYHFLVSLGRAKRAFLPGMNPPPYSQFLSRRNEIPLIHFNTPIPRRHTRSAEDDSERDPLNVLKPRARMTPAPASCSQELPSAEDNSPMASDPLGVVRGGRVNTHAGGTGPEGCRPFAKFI
# B4: Speckle-type POZ protein (Homo sapiens), O43791 (parent)
# chain: B1 chain
# partner: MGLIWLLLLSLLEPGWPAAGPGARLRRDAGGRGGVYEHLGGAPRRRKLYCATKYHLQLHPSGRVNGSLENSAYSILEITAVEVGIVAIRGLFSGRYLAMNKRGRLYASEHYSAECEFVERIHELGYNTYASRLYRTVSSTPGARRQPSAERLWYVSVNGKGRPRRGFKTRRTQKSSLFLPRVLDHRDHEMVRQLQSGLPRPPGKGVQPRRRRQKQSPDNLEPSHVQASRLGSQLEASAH
# B5: Speckle-type POZ protein (Homo sapiens), O43791 (parent)
# chain: B1 chain
# partner: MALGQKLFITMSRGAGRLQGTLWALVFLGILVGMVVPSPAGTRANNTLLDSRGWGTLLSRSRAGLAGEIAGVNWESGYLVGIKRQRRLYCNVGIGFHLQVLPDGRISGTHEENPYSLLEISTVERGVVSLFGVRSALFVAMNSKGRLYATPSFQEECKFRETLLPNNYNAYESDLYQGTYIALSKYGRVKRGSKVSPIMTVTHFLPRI
# B6: Speckle-type POZ protein (Homo sapiens), O43791 (parent)
# chain: B1 chain
# partner: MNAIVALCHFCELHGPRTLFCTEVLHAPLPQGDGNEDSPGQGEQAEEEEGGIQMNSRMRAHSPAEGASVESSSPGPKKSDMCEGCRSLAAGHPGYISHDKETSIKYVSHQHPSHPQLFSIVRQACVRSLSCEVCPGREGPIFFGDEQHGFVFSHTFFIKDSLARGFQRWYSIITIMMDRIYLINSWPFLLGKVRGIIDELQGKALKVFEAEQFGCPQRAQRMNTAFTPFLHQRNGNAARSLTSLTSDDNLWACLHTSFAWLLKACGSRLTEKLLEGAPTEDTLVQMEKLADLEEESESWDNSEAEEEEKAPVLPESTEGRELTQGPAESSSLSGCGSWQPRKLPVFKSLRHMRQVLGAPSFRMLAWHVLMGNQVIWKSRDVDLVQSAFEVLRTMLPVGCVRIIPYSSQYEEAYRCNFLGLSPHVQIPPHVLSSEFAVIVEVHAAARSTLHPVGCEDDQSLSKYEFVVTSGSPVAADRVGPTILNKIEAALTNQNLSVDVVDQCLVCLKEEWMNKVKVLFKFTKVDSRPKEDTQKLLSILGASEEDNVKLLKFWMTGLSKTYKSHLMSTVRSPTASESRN
# B7: Speckle-type POZ protein (Homo sapiens), O43791 (parent)
# chain: B1 chain
# partner: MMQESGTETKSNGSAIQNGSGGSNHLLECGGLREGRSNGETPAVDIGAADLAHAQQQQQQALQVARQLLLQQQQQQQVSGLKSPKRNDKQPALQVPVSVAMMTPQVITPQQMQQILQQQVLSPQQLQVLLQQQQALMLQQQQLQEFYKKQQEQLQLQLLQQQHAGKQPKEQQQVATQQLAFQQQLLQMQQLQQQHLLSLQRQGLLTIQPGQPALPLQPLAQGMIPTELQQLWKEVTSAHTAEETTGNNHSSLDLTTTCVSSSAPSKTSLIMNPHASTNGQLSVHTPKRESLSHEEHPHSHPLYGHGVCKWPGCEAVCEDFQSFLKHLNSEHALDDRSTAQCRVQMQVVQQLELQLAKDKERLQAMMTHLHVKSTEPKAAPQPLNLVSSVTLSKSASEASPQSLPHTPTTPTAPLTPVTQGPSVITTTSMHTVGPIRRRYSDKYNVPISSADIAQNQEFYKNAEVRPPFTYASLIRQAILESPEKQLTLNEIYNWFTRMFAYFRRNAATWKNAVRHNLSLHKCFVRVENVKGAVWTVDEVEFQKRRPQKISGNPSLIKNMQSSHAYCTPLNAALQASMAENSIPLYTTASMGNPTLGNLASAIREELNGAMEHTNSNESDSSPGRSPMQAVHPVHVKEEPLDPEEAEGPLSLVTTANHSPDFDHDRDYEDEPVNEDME
# Variants of: B1
# Conditions: with fancg_human FANCG
row,Variant,effect of a mutation on the interaction
1,F133V,with no effect

# Variants of: B2
# Conditions: with fgf14_human FGF14, Q92915
row,Variant,effect of a mutation on the interaction
1,F102C,with no effect

# Variants of: B2
# Conditions: with fgf14_human FGF14, Q92915
# Remark: another data set of the same source
row,Variant,effect of a mutation on the interaction
1,F133L,with no effect

# Variants of: B2
# Conditions: with fgf14_human FGF14, Q92915
# Remark: another data set of the same source
row,Variant,effect of a mutation on the interaction
1,Y87C,with no effect

# Variants of: B2
# Conditions: with fgf14_human FGF14, Q92915
# Remark: another data set of the same source
row,Variant,effect of a mutation on the interaction
1,F133V,with no effect

# Variants of: B3
# Conditions: with fgf23_human FGF23, Q9GZV9
row,Variant,effect of a mutation on the interaction
1,F102C,with no effect

# Variants of: B3
# Conditions: with fgf23_human FGF23, Q9GZV9
# Remark: another data set of the same source
row,Variant,effect of a mutation on the interaction
1,F133L,with no effect

# Variants of: B3
# Conditions: with fgf23_human FGF23, Q9GZV9
# Remark: another data set of the same source
row,Variant,effect of a mutation on the interaction
1,Y87C,with no effect

# Variants of: B3
# Conditions: with fgf23_human FGF23, Q9GZV9
# Remark: another data set of the same source
row,Variant,effect of a mutation on the interaction
1,F133V,with no effect

# Variants of: B4
# Conditions: with fgf3_human FGF3, P11487
row,Variant,effect of a mutation on the interaction
1,F102C,with no effect

# Variants of: B4
# Conditions: with fgf3_human FGF3, P11487
# Remark: another data set of the same source
row,Variant,effect of a mutation on the interaction
1,F133L,with no effect

# Variants of: B4
# Conditions: with fgf3_human FGF3, P11487
# Remark: another data set of the same source
row,Variant,effect of a mutation on the interaction
1,Y87C,with no effect

# Variants of: B4
# Conditions: with fgf3_human FGF3, P11487
# Remark: another data set of the same source
row,Variant,effect of a mutation on the interaction
1,F133V,with no effect

# Variants of: B5
# Conditions: with fgf6_human FGF6, P10767
row,Variant,effect of a mutation on the interaction
1,F102C,with no effect

# Variants of: B5
# Conditions: with fgf6_human FGF6, P10767
# Remark: another data set of the same source
row,Variant,effect of a mutation on the interaction
1,F133L,with no effect

# Variants of: B5
# Conditions: with fgf6_human FGF6, P10767
# Remark: another data set of the same source
row,Variant,effect of a mutation on the interaction
1,Y87C,with no effect

# Variants of: B5
# Conditions: with fgf6_human FGF6, P10767
# Remark: another data set of the same source
row,Variant,effect of a mutation on the interaction
1,F133V,with no effect

# Variants of: B6
# Conditions: with flcn_human FLCN
row,Variant,effect of a mutation on the interaction
1,F102C,with no effect

# Variants of: B6
# Conditions: with flcn_human FLCN
# Remark: another data set of the same source
row,Variant,effect of a mutation on the interaction
1,F133L,with no effect

# Variants of: B6
# Conditions: with flcn_human FLCN
# Remark: another data set of the same source
row,Variant,effect of a mutation on the interaction
1,Y87C,with no effect

# Variants of: B6
# Conditions: with flcn_human FLCN
# Remark: another data set of the same source
row,Variant,effect of a mutation on the interaction
1,F133V,with no effect

# Variants of: B7
# Conditions: with foxp1_human FOXP1, Q9H334
row,Variant,effect of a mutation on the interaction
1,F102C,with no effect

# Variants of: B7
# Conditions: with foxp1_human FOXP1, Q9H334
# Remark: another data set of the same source
row,Variant,effect of a mutation on the interaction
1,F133L,with no effect
